Measurements taken from article PMC10942606 (eLife, 2023).
Changes are numbered by the printed parent chain. In names and notes the source's numbering stands.

B1: Pcf2 (medium subunit of SpCAF-1) (natural protein, S. pombe, UniProt O13985 1-512, looked up)
chain: MRAEVLQIRWHYDANDDHTPIYSVDFQKNSLNKFATCGGDSKIRIWQLITSESSTKVEYLSTLSRHTQAVNVVRFNPEGNILATAGDEGTIMLWVPTNTPITTLADDAEELALAKEYWKVKIVCRSMGSEIYDLCWSVDSNFLIAGAMDNSLRLYDAHTGQLLTQKFDHSHYVQGVCWDPLNQYIVSESSDRSICLYEIQEEKKNPKKFQLVLKSRICRIEYNVTKFELISVTKPLNNDESSGISEPIETSNNNESPVSKHEALSSTANIVKDGSLERTEPPNSLNSKISYSLYCNETLVSFFRRPAFSPDGLLLVTPAGRLRPHGQPNFEVPYTAYIYTRGSITKQPVACLNGFKKPVIAVRFSPIHYELNSFSNFSFTSVSFNLPYRMVFAVACQDAVYIYDTQTCKPFYRAVNLHYSNLTDIAWNDDGNVLLMTSIDGFCSVITFEPGELGVKSQHKISLPEKRSASPSSIDDSQDNTAGGPATTTLIPRKVESSKVSKKRIAPTPVYP
B2: PCNA (endogenous, S. pombe) (natural protein, S. pombe (endogenous in S. pombe), UniProt Q03392 1-260, looked up)
chain: MLEARFQQAALLKKLLDAIKELVTDANFDCNDNGISLQAMDSSHVALVSMLIKSDGFEPYRCDRNIALGINLNALSKVLRCAQNEDLVTLKAEDTPEVLNLVFESEKNDRISDYDVKLMDIDQEHLGIPDIEYDATITMPAAEFQRITRDLLTLSDSVTINASKEGVRFSCKGDIGNGSTTLKQHTDLSDQDQSIEISLTQAVTLTFSLKYLAQFTKATPLATRVTLSMSNDVPLLVEYKMESGFLRFYLAPKIGEEDEE
B3: Pcf1_KER-PIP (56-185) (domain or fragment, S. pombe, UniProt Q1MTN9 56-185, looked up)
chain: KLSYEGNRKKRIYNGSAEAGKEKKLQKQRAQEERIRQKEAERLKREKERQQREQEKKLREQEKIAAKKMKELEKLEKERIRLQEQQRRKEERDQKLREKEEAQRLRQEQILNKERQQLKLNNFFTKGVEK
B4: Pcf1_KER*-PIP (56-185, R147E-K150E-K154E-R161E-K168E) (domain or fragment, S. pombe, UniProt Q1MTN9 56-185, looked up)
chain: B3 chain with R92E, K95E, K99E, R106E, K113E
B5: Pcf3 (small subunit of SpCAF-1) (natural protein, S. pombe, UniProt Q9Y825 1-408, looked up)
chain: MNTELDMQNFEHIKFLENQISEDHFRWKKNSKHLYNLLITRTLTWPSLSIQWLSAMESITEKAVLKNRLLLGTHAAEGMPNFLQLADLDLPDFNQTILDPVKHYNEDTGELGGYSMQHSCKFQISQRILHNGDVNRVRHMPQNPNIIATMSSCGNAYIFDRTKYTSMPAEEFLPNISLIGHKKEGFGLSWNRQQNCRLVTAANDSKILEWDLNNFSRDTRCLTPVKDFHYDDSPVNDVEYHPHHTNLYIAVNDNGIAFICDNRLQQTCSKTVKASNPLFSVRHNPSIATLFALGSEQDLQLWDLRNLNKSVFNTSEDLSDNRLKVPSRLTLGGTSLSWSWRHSGRIVSACQEYCYVWNFNKANPLEFVHAGHKGTVNEVDFDPFEAQCIASVADDNELHIWKPNVIVN
B6: Pcf1 (large subunit of SpCAF-1) (natural protein, S. pombe, UniProt Q1MTN9 1-544, looked up)
chain: MNSESVDSDVAASTSNKGNELCSSSTDITSLSVSSPNESVIHSSHSASEADEYVCKLSYEGNRKKRIYNGSAEAGKEKKLQKQRAQEERIRQKEAERLKREKERQQREQEKKLREQEKIAAKKMKELEKLEKERIRLQEQQRRKEERDQKLREKEEAQRLRQEQILNKERQQLKLNNFFTKGVEKRIAPNENFVADKTDELNEFEKEFRPFFIKHQMSLSKYPSPNESDSFLDEVLSTSKSYPLKLNDIFTPSDAVSSANSLGVSNRNSENEVRQLMSAYQDPSVSKPQEILSCLSQIPIKFIFFYQDVRPPYFGSYTKTHSHGSNVLLNPWLEDEDIDYTYDSEAEWVADEEDDGEDLESEDEEVDNSDDIVEDGDNAFVDDEDDDKDSVNASNTHRSSGPLEVIVEGPVWDSKFLPDFNCLSLIEPISSFSASTYLQIDPKEDLWASQDTAPASSGMTIGPTSSLSDDLQVRFPSEDIPKFIEYVRNSHDNKVFLIENLRHMFPYVTKNIISETLGKVAVRKGKSVSDGWIIKENFASLLSS
B7: SpCAF-1 complex (Pcf1-Pcf2-Pcf3), wild type, full length (complex, S. pombe)
chain 1: B6 chain
chain 2: B1 chain
chain 3: B5 chain
B8: SpCAF-1-KER* complex (Pcf1 R147E-K150E-K154E-R161E-K168E, Pcf2, Pcf3) (complex, S. pombe)
chain 1: B6 chain with R147E, K150E, K154E, R161E, K168E
chain 2: B1 chain
chain 3: B5 chain
B9: SpPCNA (recombinant S. pombe PCNA) (natural protein, UniProt Q03392 1-260, looked up)
chain: B2 chain
B10: Pcf1_ED (325-396) (domain or fragment, S. pombe, UniProt Q1MTN9 325-396, looked up)
chain: SNVLLNPWLEDEDIDYTYDSEAEWVADEEDDGEDLESEDEEVDNSDDIVEDGDNAFVDDEDDDKDSVNASNT

Tests used:
[1] = biological target: B6; assay: SEC-SAXS
[2] = biological target: FLAG-Pcf1-ED* (expressed from the endogenous pcf1 gene) (S. pombe, UniProt Q1MTN9 1-544, Y340A | W348A); assay: co-IP
[3] = biological target: B9; assay: ITC
S. pombe histones H3−H4 [4] = biological target: T1, S. pombe histones H3−H4 (S. pombe, UniProt P09988 1-136; P09322 1-103); assay: NMR titration
SEC = biological target: the molecule itself; assay: SEC
S. pombe histones H3−H4 [5] = biological target: T1, S. pombe histones H3−H4; assay: SEC
[6] = biological target: B7; assay: native gel or EMSA
S. pombe histones H3−H4 [7] = biological target: T1, S. pombe histones H3−H4; assay: NMR titration; remark: listed apart in the source

Binder: B1
stoichiometry N [1]: 1

Binder: B2
fold change of bound PCNA against WT Pcf1 [2]: 8 fold of WT Pcf1

Binder: B3
Kd [3]: 0.7 ± 0.2 µM
dH [3]: 2.9 ± 0.6 kCal.M^–1
stoichiometry N [3]: 0.64 ± 0.04

Binder: B4
Kd [3]: 7.1 ± 1.5 µM
dH [3]: 1 ± 0.5 kCal.M^–1
stoichiometry N [3]: 0.7 ± 0.2

Binder: B5
stoichiometry N [1]: 1

Binder: B6
binding result (S. pombe histones H3−H4 [4]): binds
binding result (SEC): binds

Binder: B7
binding result (S. pombe histones H3−H4 [5]): binds

Binder: B8
binding result (S. pombe histones H3−H4 [4]): binds

Binder: B9
binding result [6]: binds

Binder: B10
binding result (S. pombe histones H3−H4 [7]): binds
